Results published in patent US20250376520A1 (SINGAPORE HEALTH SERVICES PTE, published 2025).

Biological target: human TRPM4 (transient receptor potential melastatin 4) channel, myc-tagged, expressed in HEK 293 cells (human, UniProt Q8TD43 1-1214)
Assay: cell-based or functional assay

Sequence of human TRPM4 (transient receptor potential melastatin 4) channel, myc-tagged, expressed in HEK 293 cells (Q8TD43 whole entry): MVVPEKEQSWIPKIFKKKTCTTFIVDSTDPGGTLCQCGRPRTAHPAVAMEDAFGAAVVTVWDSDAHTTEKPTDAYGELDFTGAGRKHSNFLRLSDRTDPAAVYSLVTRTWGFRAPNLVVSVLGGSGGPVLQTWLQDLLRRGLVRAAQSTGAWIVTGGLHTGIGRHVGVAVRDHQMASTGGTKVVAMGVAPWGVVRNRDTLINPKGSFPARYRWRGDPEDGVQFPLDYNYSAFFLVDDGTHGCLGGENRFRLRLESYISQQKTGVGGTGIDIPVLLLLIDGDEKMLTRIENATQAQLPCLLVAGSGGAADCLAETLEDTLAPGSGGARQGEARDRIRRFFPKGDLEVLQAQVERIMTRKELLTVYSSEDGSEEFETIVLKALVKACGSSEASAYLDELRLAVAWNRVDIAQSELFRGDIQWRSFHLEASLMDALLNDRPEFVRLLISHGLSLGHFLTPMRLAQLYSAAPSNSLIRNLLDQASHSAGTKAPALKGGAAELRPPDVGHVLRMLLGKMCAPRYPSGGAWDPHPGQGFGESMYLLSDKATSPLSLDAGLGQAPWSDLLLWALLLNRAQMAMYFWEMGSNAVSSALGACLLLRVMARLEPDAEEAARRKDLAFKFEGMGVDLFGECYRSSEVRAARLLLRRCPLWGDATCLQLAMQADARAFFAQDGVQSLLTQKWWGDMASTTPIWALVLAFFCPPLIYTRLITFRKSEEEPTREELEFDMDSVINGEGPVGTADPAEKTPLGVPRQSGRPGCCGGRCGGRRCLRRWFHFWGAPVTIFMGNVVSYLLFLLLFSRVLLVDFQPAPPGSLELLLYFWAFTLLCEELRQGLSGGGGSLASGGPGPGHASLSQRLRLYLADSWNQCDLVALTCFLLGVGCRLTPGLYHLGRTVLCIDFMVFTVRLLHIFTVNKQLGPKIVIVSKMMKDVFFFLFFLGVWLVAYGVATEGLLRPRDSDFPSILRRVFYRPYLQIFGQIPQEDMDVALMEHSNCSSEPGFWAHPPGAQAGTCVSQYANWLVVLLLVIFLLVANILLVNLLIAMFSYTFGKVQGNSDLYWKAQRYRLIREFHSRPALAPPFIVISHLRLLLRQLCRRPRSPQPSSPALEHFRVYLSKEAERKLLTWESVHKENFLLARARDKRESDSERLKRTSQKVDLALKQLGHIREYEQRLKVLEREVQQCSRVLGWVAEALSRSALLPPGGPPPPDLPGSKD

B1: humanized anti-TRPM4 antibody clone A6 (VH2 + VL1), renamed M4H (antibody, human IgG1, kappa, V domains shown)
VH: QVQLQESGPGLVKPSQTLSLTCTVSGYSITSDYAWNWIRQHPGKGLEWMGYLSYSGVTSYNPSLKGRVTISRDTSKNQFSLKLSSVTAADTAVYYCARKGTYYRYEGSYWYFDVWGQGTTVTVSS
VL: DIQMTQSPSSLSASVGDRVTITCHANQNIDVWLSWYQQKPGKAPKLLIYKTSNLHTGVPSRFSGSGSGTDFTFTISSLQPEDIATYYCQQGQSYPLTFGGGTKLEIKR
  IC50, dose-dependent inhibition of hypoxia-induced TRPM4 current increase: 1.04 mg/L
